Among the data in article PMC12103069, “Structure predictions of MuRF1‐UBE2 complexes identify amino acid residues governing interaction selectivity for each MuRF1‐E2 pair” (The Febs Journal, 2025) are binding result and Kd values, retold here.

To fix the notation:
T1: GST-MuRF3RM (MuRF3 amino acids 1-115, RING and MFC domains) (UniProt Q9ERP3 1-115)
T1 construct: Cloned in pGEX6P3
T1 sequence (looked up): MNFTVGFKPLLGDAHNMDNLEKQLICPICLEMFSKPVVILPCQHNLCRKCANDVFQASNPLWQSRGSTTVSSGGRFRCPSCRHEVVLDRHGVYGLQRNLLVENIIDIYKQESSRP

B1: GST-MuRF1RM (MuRF1 amino acids 1-115, RING and MFC domains) (domain or fragment, Rattus norvegicus)
chain: MDYKSGLIPDGNAMENLEKQLICPICLEMFTKPVVILPCQHNLCRKCANDIFQAANPYWTNRGGSVSMSGGRFRCPSCRHEVIMDRHGVYGLQRNLLVENIIDIYKQECSSRPLQ
modifications: red fluorescent dye NT-647, covalently, by amine coupling (in the fluorescence assay only)
notes: MuRF1 / TRIM63, Rattus norvegicus, first 115 amino acids (RING and MFC domains); Cloned in pGEX6P3; Immobilised unlabelled by amine coupling in SPR; labelled with NT-647 in the fluorescence assay; also called MuRF1 (in the SPR section); not shown: GST, N-terminal, kept
B2: GST-MuRF3 (full length) (enzyme, UniProt Q9ERP3 1-366, looked up)
chain: MNFTVGFKPLLGDAHNMDNLEKQLICPICLEMFSKPVVILPCQHNLCRKCANDVFQASNPLWQSRGSTTVSSGGRFRCPSCRHEVVLDRHGVYGLQRNLLVENIIDIYKQESSRPLHAKAEQHLMCEEHEDEKINIYCLSCEVPTCSLCKVFGAHKDCEVAPLPTIYKRQKSELSDGIAMLVAGNDRVQAVITQMEEVCQTIEDNSRRQKQLLNQRFETLCAVLEERKGELLQALAREQEEKLQRVRGLIRQYGDHLEGSSKLVESAIQSMEEPQMALYLQQAKELINKVGAMSKVELAGRPEPGYESMEQFSVSVEHVAEMLRTIDFQPGAAGDEEDDDMALDGEEGNAGLEEERLDVPEGSGLH
modifications: fluorochrome, covalently (NT-647 by amine coupling in the methods; NT115 in the results)
notes: Cloned in pGEX6P3
B3: UBE2E1 (enzyme, Mus musculus)
chain: MSDDDSRASTSSSSSSSSNQQTEKEGSTPKKKESKVSMSKNSKLLSTSAKRIQKELADITLDPPPNCSAGPKGDNIYEWRSTILGPPGSVYEGGVFFLDITFTPEYPFKPPKVTFRTRIYHCNINSQGVICLDILKDNWSPALTISKVLLSICSLLTDCNPADPLVGSIATQYMTNRAEHDRMARQWTKRYAT
notes: UBE2E1, Mus musculus, full length (amplified from C2C12 cells); Cloned in pET28a; source: E. coli Rosetta (DE3), purified (Ni-NTA)
B4: UBE2J2 cytosolic part, wild type (domain or fragment, Mus musculus, UniProt Q6P073 1-226, looked up)
chain: MSNNSNKRAPTTATQRLKQDYLRIKKDPVPYICAEPLPSNILEWHYVVRGPEMTPYEGGYYHGKLIFPREFPFKPPSIYMITPNGRFKCNTRLCLSITDFHPDTWNPAWSVSTILTGLLSFMVEKGPTLGSIETSDFTKKQLAAQSLVFNLKDKVFCELFPEVVEEIKQKQKAQDELSNRPQNLPLPDVVPDGELHRGQHGIQLLNGHAPAAGPNLAGLPQANRHH
notes: UBE2J2, Mus musculus, cytosolic part (amplified from C2C12 cells); Cloned in pET28a; also called EJ2c; source: E. coli Rosetta (DE3), purified (Ni-NTA)
B5: UBE2J1 cytosolic part, wild type (domain or fragment, Mus musculus, UniProt Q9JJZ4 1-282, looked up)
chain: METRYNLKSPAVKRLMKEAAELKDPTDHYHAQPLEDNLFEWHFTVRGPPDSDFDGGVYHGRIVLPPEYPMKPPSIILLTANGRFEVGKKICLSISGHHPETWQPSWSIRTALLAIIGFMPTKGEGAIGSLDYTPEERRALAKKSQDFCCEGCGSAMKDVLLPLKSGSGSSQADQEAKELARQISFKAEVNSSGKTIAESDLNQCFSLNDSQDDLPTTFQGATASTSYGAQNPSGAPLPQPTQPAPKNTSMSPRQRRAQQQSQRRPSTSPDVLQGQPPRAHHT
notes: UBE2J1, Mus musculus, cytosolic part (amplified from C2C12 cells); Cloned in pET28a; source: E. coli Rosetta (DE3), purified (Ni-NTA)

Common to all, as to test: other fluorescence titration; change in the initial fluorescence of dye-labelled GST-MuRF (10 nM, constant) with a 16-sample serial dilution of the E2; MonolithX (NanoTemper), premium capillaries, 100% MST power, 25 °C; 50 mM HEPES pH 7.4, 150 mM NaCl, 0.005% Tween20, 0.1% dextran
Holding throughout (details): both partners purified

In experiment [1] the target is T2, UBE2L3 wild type (Mus musculus).
T2 construct: UBE2L3, Mus musculus, full length (amplified from C2C12 cells); Cloned in pET28a; source: E. coli Rosetta (DE3), purified (Ni-NTA)

Experiment [2] concerns the target T1, GST-MuRF3RM (MuRF3 amino acids 1-115, …).
In experiment [3] the target is B1.
Experiment [4] concerns the target B2.

Regarding B1, in experiment [1], the binding result is reported as “binds”.
In experiment [1], B2 showed a Kd of 400 nM.
Regarding B3, the Kd in experiment [2] is 500 nM; in experiment [3], 400 nM.
Take B4: the Kd in experiment [4] amounted to 24800 nM.
Still for that read-out and setting: next, B5: 400 nM.

The Kd is the constant that tells how readily two partners part at equilibrium. High values mean lower affinity, low ones higher affinity.
